According to patent publication US20220127334A1:

Key:
[1] = molecular target: trypsin (Examples 7 and 8, source not stated); assay: cell-based or functional assay
[2] = molecular target: Human pancreatic trypsin (Athens Research & Technology, Inc) (human) (UniProt P07477); assay: cell-based or functional assay

Q: What does the source list for “human UTI (human urine UTI) (from UniProt P02760 206-352)”?
A: IC50 of inhibition of trypsin-induced IL-6 production in BEAS2B cells [1]: 0.4 µg/mL; IC50 of trypsin inhibition (fluorogenic substrate, enzyme activity) [2]: 3 nM
